Patent US20230234987A1

Key:
[1] = biological target: His-tagged PP1 (protein phosphatase 1, catalytic subunit); assay: plate binding curve: biotinylated peptide on His-PP1 on nickel wells, streptavidin-Alexa Fluor 488
[2] = biological target: His-tagged PP1 (protein phosphatase 1, catalytic subunit); assay: competition plate assay: MYPT1 1-299 binding to His-PP1 with increasing PIP250; competitor MYPT1 1-299
[3] = biological target: His-tagged PP1 (protein phosphatase 1, catalytic subunit); assay: plate binding curve: MYPT1 1-299 on His-PP1 on nickel wells, streptavidin-Alexa Fluor 488
[4] = biological target: His-tagged PP1 (protein phosphatase 1, catalytic subunit); assay: as above; remark: listed apart in the source

Row | Kd [1] [µM] | Ki [2] [µM] | Kd [3] [µM] | Kd [4] [µM] | Substance
1 | 610 | 155 |  |  | PIP250 (H-rrfkvktkkrk-NH2) (peptide)
2 | 1280 |  |  |  | PIP251 (H-rrakvktkkrk-NH2) (peptide)
3 | 724 |  |  |  | PIP252 (H-rrfkaktkkrk-NH2) (peptide)
4 |  |  | 0.05 | 0.049 | amino acids 1-299 of MYPT1
